Experimental data published in the nanobody polyreactivity screen of Harvey et al. (2022).

Test: yeast display, Sf9 membrane polyspecificity reagent, FACS + sequencing; frameworks hold sequencing errors
In short: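 Nanobodies from a synthetic yeast display library (Saccharomyces cerevisiae BJ5465), induced 36–48 hours with galactose, were stained 1 hour at 4 °C with 10% biotinylated, detergent-solubilized Sf9 membrane reagent, enriched on streptavidin microbeads, then FACS-sorted. Anti-HA (expression) and streptavidin (reagent binding) fluorescence set low and high (top ~1%) gates. Polyreactivity labels come from the gate of origin. Genes were colony-PCR amplified, MiSeq 2 × 250 sequenced and filtered by CDR length.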

| Sequence | polyreactivity (PSR sort gate) |
| --- | --- |
| QVQLVESGGGLVQAGGSLRLSCAASGLTFSDYAMGWYRQAPGKERAFVAAITRNGGSTRYADSVKGRFTISRDNAKITVYLQMHSLKPEDTAVYYCATDVGFGRKQRPHRPGYGYWGQGTQVTVSS | low polyreactivity |
| QVQLVESGGGLVQAGGSLRLSCAASGLTFSGNVMGWYRQAPGKERELVAAIDRSGGSTYYADSVKGRFTISRDNAKNTVYLQMNSLKPEDTAVYYCAVSSYPNHSRSWDDYWGQGTQVTVSS | low polyreactivity |
| QVQLVESGGGLVQAGGSLRLSCAASGLTFSKYVMGWYRQAPGKERELVAAITWSGGRTYYADSVKGRFTISRDNAKNTVYLLMNSLKPEDTAVYYCNRKLKGLGYEYDYWGQGTQVTVSS | high polyreactivity |
| QVQLVESGGGLVQAGGSLRLSCAASGLTFSKYVMGWYRQAPGKERELVAAITWSGGRTYYADSVKGRFTISRDNAKNTVYLQMNSLKPEDTAVYYCNRKLKGLGYEYDYWGQGTQVTVSS | high polyreactivity |
| QVQLVESGGGLVQAGGSLRLSCAASGLTFSLNAMGGYRQAPGKERELVAAIRGSGGSTYYADSVKGRFTISRDNAKNTVYLQMNSLKPEDTAVYYCNADQLVWQRYGVLYEYDYWGQGTQVTVSS | high polyreactivity |
| QVQLVESGGGLVQAGGSLRLSCAASGLTFSQNAMGWYRQAPGKERELVAAITRSGSTTHYADSVKGRFTISRDNAKNTVYLQMNSLKPEDTAVYYCAAVAFLTRYYYWGQGTQVTVSS | high polyreactivity |
| QVQLVESGGGLVQAGGSLRLSCAASGLTFSRYAMGWYRQAPGKERELVAAITWSGSSTYYADSVKGRFTISRDNAKNTVYLQMNSLKPEDTAVYYCAARYGYSRGPYYRSDYWGQGTQVTVSS | high polyreactivity |
| QVQLVESGGGLVQAGGSLRLSCAASGLTFSVYAMGWYRQAPGKERELVAAISYSGDSTYADSVKGRFTISRDNAKNTVYLQMNSLKPEDTAVYYCNARWVRQGYRRWYDYWGQGTQVTVSS | low polyreactivity |
| QVQLVESGGGLVQAGGSLRLSCAASGLTFSVYAMGWYRQAPGKERELVAAITRNGGSTYYADSVKGRFTISRDNAKNTVYLQMNSLKTEDTAVYYCAADASSKLYDYWGQGTQVSVSS | low polyreactivity |
| QVQLVESGGGLVQAGGSLRLSCAASGLTFSWNAMGWYRQAPGKERELVAAISSRGGSTYYADSVKWRFKISRDNAKNTVYLQMNSLKPEDTAVYYCNAHGRRFLGDYGYWGQGTQVTVSS | low polyreactivity |
| QVQLVESGGGLVQAGGSLRLSCAASGLTFTGYFMGWYRQAPGKERELVAAISYSGSSTYYADSVKGRFTISRDNAKNTVYLQMNSLKQEDTAVYYCAATSHAYYPRYYYWGQGTQVTVSS | high polyreactivity |
| QVQLVESGGGLVQAGGSLRLSCAASGLTFTKYAMGWYRKAPGKEREFVASISWNGGDTYADSVKGRFTISRDNAKNTVYLQMNSLKPEDTAVYYCAARRTQQKVYYWGQGTQVTVSS | high polyreactivity |
| QVQLVESGGGLVQAGGSLRLSCAASGLTFTSYAMGWSRPAPGKERELVAAIDWSGGRTYYADSVKGRFTISRDNAKNTVYLQMNSLKPEDTAVYYCAAYSRNRALRFNYWGQGTQVTVSS | high polyreactivity |
| QVQLVESGGGLVQAGGSLRLSCAASGLTFTSYAMGWYRQAPGKERELVAAIDWSGGRTYYADSVKGRFTISRDNAKNTVYLQMNSLKPEDTAVYYCYKYRYQWPYRRFDYWGQGTQVTVSS | high polyreactivity |
| QVQLVESGGGLVQAGGSLRLSCAASGLTFTYYAMGWYRQAPGKERELVAAISSSGSDTYYADSVKGRFTISRDNAKNTVYLQMNSLKPEDTAVYYCAAVLTALSPDFEYEYWGQGTQVTVSS | low polyreactivity |
| QVQLVESGGGLVQAGGSLRLSCAASGLTFVANAMGWYRQAPGKERELVAAIDYGGGHTYYADSVKGRFTNSRDNAKNTVYLQMNSLKPEDTAVYYCAVGLPHGGRRLYGSWYRFDYWGQGTQVTVSS | low polyreactivity |

| Sequence | polyreactivity (PSR sort gate) |
| --- | --- |
| QVQLVESGGGLVQAGGSLRLSCAASGLTFVDYAMGWYRQAPGKERELVAAITSSGGSITYYADSVKGRFTISRDNAKNTVYLQMNSLKPEDTAVYYCNADYGIYTDSFRGPDYESWGQGTQVTVSS | low polyreactivity |
| QVQLVESGGGLVQAGGSLRLSCAASGLTFVFYAMGWYRQAPGKERELVAAISSSGGSTNYADSVKGRFTISRDNAKNTVYLQMNSLKPEDTAVYYCNAALLGKQYYSNPNYDYWGQGTQVTVSS | high polyreactivity |
| QVQLVESGGGLVQAGGSLRLSCAASGLTFVFYAMGWYRQSPGNERELVAAISWSTGRTYYADSVKGRFTISRDNAKNTVYLQMNSLKPEDTAVFYCGASFLGRKYDYWGHGTQVTVSS | high polyreactivity |
| QVQLVESGGGLVQAGGSLRLSCAASGLTFVGNAMGWYRQAPGKERELVAAISRSGGRTYYADSVKGRFTISRDNAKNTVYLQMNSLKPEDTAVYYCAAPYRSYDWYDYWGQGTQVTVSS | high polyreactivity |
| QVQLVESGGGLVQAGGSLRLSCAASGLTFVHYAMGWYRQAPGKQRDLVAAISSGGGSTYYADSVKGRFTISRDNAKNTVYLQMNSLKPEDTAVYYCNVYDHYYSFYSSRDNDYWGQGTQVTVSS | low polyreactivity |
| QVQLVESGGGLVQAGGSLRLSCAASGLTFVPNAMGWYRQAPGKERELVAAISNNGGRTYYADSVKGRFTISRDNAKNNVYLQMNSLKPEDTAVYYCAKYLSPGERHSYDYWGQGTQVTLSS | high polyreactivity |
| QVQLVESGGGLVQAGGSLRLSCAASGLTFVQNAMGWYRQAPGKERELVAAISTSGGSTYYADSVKGRFTISRDNAKNTVYLQMNSLKPEDTAVYYCAAYPRSWWRGYDYWGQGTQVTVSS | high polyreactivity |
| QVQLVESGGGLVQAGGSLRLSCAASGLTFVRYAMGWYRQAPGKERELVAVISYSGARTYYADSVKGRFTISRDNAKNTVYLQMNSLKPEDTAVYYCAATFRGTFRRIWTDTRAYDYWGQGTQVTVSS | high polyreactivity |
| QVQLVESGGGLVQAGGSLRLSCAASGLTFVTYVMGWYRQAPGKERELVAAISYSGGSTYYADSVKGRFTISRDNAKNTVYLQMISLKPEDTAVYYCAAEWYGYQEDDYWGQGTQVTVSS | low polyreactivity |
| QVQLVESGGGLVQAGGSLRLSCAASGLTFVYNTMGWYSQAPGKERELVAAISSSGGTTYYADSVKGRFTISRDTAKNTVYLQMNSLKPEDTAVYYCAARPSGGYESTRTRDYWGQGTHVTVSS | low polyreactivity |
| QVQLVESGGGLVQAGGSLRLSCAASGLTFVYYAMGWSRPAPGKERELVAAISRGGTTYYADSVKGRFTISRDNAKNTVYLQMNSLKPEDTAVYYCARVGRYRYEWGQGTQVTVSS | high polyreactivity |
| QVQLVESGGGLVQAGGSLRLSCAASGLTFVYYTMGWYRQAPGKERELVAAISGSGDNTYYADSVKGRFTISRDNAKNTVYLQMNSLKPEDTAVYYCAADKSYYYYLFGYDYWGQGTQVTVSS | low polyreactivity |
| QVQLVESGGGLVQAGGSLRLSCAASGLTFVYYTMGWYRQAPGKERELVAGINSGGSTYYADSVKGRFTISRDNAKNTVFLQMNSLKPEDTAVYYCAAVQRGYRRFRRIYDYWGQGTQVTVSS | high polyreactivity |
| QVQLVESGGGLVQAGGSLRLSCAASGLTFWGNAMGWYRQAPGKEREFVAGIDRSSVSTYADSVKGRFTISRDNAKNTVYLQMNSLKPEDTAVYYCAVDEYGIWVGWVPYATFGMNYWGQGTQVTVSS | high polyreactivity |
| QVQLVESGGGLVQAGGSLRLSCAASGLTFWGNTMGWYRQAPGKERELVAAISSGGITYYADSVKGRFTISRDNANNTVYLLMNSLKPEETAVYYCIGVFSFVPHEMDYWGLGTQVTVSS | high polyreactivity |
